Data reported in PMC4672631 (Biochemistry, 2015).

B1: iron-sulfur protein (ISP), spinach (natural protein, UniProt P08980 52-230, looked up)
chain: ATSIPADNVPDMQKRETLNLLLLGALSLPTGYMLLPYASFFVPPGGGAGTGGTIAKDALGNDVIAAEWLKTHAPGDRTLTQGLKGDPTYLVVESDKTLATFGINAVCTHLGCVVPFNAAENKFICPCHGSQYNNQGRVVRGPAPLSLALAHCDVDDGKVVFVPWTETDFRTGEAPWWSA
B2: subunit IV, spinach (natural protein, UniProt P00166 1-160, looked up)
chain: MGVTKKPDLNDPVLRAKLAKGMGHNYYGEPAWPNDLLYIFPVVILGTIACNVGLAVLEPSMIGEPADPFATPLEILPEWYFFPVFQILRTVPNKLLGVLLMASVPAGLLTVPFLENVNKFQNPFRRPVATTVFLVGTVVALWLGIGATLPIDKSLTLGLF
B3: cytochrome b6, spinach (natural protein, UniProt P00165 1-215, looked up)
chain: MSKVYDWFEERLEIQAIADDITSKYVPPHVNIFYCLGGITLTCFLVQVATGFAMTFYYRPTVTDAFASVQYIMTEVNFGWLIRSVHRWSASMMVLMMILHVFRVYLTGGFKKPRELTWVTGVVLGVLTASFGVTGYSLPWDQIGYWAVKIVTGVPDAIPVIGSPLVELLRGSASVGQSTLTRFYSLHTFVLPLLTAVFMLMHFLMIRKQGISGPL

Biological target: cytochrome f (PetA), spinach (spinach, UniProt P16013 36-320)
Assay: co-purification with SDS-PAGE densitometry

Chain of cytochrome f (PetA), spinach (P16013 36-320): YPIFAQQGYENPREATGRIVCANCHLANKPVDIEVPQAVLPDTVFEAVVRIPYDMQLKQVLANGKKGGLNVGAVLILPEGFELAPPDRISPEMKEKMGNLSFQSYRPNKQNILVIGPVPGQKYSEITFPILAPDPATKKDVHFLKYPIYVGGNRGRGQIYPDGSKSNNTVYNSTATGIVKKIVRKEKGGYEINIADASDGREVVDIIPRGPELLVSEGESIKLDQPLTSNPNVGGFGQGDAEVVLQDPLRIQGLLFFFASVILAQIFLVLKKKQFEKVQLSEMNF

Binder | stoichiometry N
B1 | 0.95 relative to cyt f
B2 | 0.85 relative to cyt f
B3 | 0.96 relative to cyt f
